Data taken from patent US20240182536A1 (MURAL ONCOLOGY, published 2024).
Like-named read-outs stand apart in the source and are kept apart here.

T1: IL-18 receptor alpha (UniProt Q13478 19-329, limits assumed)
T1 construct: also called IL-18 Rα; IL-18Rα
T1 sequence (looked up): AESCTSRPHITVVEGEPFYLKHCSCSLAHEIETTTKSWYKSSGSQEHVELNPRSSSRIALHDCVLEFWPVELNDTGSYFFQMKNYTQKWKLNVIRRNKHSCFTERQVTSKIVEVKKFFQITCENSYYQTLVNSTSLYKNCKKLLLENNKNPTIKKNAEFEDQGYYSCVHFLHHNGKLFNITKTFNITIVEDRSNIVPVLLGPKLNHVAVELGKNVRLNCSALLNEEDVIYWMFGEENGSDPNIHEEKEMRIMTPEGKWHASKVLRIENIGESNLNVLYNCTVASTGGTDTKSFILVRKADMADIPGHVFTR

T2: human IL-18 binding protein (human, UniProt O95998 31-194)
T2 sequence (looked up): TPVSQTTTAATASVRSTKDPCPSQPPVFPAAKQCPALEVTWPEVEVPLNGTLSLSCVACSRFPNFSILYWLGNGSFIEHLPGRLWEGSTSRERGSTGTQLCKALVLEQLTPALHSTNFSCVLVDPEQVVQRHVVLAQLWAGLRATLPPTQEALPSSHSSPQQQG

T3: IL-18 receptors on HEK-Blue IL-18 reporter cells (UniProt Q13478 19-541; O95256 20-599, limits assumed)
T3 sequence (looked up) 1: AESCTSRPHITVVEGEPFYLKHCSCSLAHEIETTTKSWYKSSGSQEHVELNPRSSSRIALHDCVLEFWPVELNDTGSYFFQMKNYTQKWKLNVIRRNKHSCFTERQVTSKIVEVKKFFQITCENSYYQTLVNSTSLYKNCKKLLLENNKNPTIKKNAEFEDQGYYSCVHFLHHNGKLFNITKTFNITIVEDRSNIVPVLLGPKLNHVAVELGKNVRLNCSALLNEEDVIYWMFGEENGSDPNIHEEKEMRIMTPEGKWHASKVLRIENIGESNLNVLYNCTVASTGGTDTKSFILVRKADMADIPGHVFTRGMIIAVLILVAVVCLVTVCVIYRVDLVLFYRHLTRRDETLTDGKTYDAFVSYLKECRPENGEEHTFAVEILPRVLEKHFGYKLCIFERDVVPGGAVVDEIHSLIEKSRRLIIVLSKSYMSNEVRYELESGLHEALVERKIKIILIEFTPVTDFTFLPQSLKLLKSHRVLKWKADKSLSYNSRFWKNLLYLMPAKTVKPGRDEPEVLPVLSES
T3 sequence (looked up) 2: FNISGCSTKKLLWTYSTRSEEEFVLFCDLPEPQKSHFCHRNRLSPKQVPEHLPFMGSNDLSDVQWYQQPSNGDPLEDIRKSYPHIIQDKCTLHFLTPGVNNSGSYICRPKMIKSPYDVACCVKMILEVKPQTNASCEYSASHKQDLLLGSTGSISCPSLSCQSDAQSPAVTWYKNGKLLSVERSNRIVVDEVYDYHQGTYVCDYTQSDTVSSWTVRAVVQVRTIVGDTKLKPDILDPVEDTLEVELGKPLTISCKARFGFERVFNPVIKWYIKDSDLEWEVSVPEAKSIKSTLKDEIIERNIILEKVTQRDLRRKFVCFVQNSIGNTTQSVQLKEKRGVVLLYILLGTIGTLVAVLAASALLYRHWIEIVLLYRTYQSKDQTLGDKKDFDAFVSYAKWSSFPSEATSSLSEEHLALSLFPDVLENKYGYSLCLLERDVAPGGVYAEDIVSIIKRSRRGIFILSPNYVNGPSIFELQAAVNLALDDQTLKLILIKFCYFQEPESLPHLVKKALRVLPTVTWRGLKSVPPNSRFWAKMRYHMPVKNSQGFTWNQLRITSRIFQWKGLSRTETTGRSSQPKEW

T4: mouse IL-18 binding protein (mouse, UniProt Q9Z0M9 29-193)
T4 construct: also called Mouse IL18BP; Mouse IL-18BP
T4 sequence (looked up): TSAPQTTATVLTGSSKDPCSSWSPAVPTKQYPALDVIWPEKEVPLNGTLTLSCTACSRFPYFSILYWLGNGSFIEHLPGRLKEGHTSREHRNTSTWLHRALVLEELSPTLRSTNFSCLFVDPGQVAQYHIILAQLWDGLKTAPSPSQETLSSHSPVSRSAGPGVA

T5: mouse IL-18 receptor alpha (mouse, UniProt Q61098 20-326, limits assumed)
T5 construct: also called Mouse IL18Ra; mouse IL-18R alpha
T5 sequence (looked up): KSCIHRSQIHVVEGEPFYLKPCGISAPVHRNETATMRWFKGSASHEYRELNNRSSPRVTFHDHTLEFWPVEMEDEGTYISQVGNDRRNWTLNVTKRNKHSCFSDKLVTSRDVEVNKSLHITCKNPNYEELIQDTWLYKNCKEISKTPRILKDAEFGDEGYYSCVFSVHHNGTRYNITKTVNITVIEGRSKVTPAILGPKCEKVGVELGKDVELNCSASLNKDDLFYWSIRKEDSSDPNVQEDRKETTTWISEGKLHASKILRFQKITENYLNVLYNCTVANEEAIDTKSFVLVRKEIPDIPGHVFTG

T6: human IL-18 binding protein (IL-18BP) (human, UniProt O95998 31-194)
T6 construct: also called hu IL-18BP; hIL18BP
T6 sequence (looked up): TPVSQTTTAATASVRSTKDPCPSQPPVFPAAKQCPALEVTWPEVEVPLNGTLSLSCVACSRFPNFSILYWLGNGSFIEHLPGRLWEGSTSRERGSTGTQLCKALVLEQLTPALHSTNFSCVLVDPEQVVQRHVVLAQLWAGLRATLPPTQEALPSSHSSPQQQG

T7: IL-18 receptors on HEK-Blue IL-18 reporter cells (InvivoGen) (UniProt Q13478 19-541; O95256 20-599)
T7 sequence (looked up) 1: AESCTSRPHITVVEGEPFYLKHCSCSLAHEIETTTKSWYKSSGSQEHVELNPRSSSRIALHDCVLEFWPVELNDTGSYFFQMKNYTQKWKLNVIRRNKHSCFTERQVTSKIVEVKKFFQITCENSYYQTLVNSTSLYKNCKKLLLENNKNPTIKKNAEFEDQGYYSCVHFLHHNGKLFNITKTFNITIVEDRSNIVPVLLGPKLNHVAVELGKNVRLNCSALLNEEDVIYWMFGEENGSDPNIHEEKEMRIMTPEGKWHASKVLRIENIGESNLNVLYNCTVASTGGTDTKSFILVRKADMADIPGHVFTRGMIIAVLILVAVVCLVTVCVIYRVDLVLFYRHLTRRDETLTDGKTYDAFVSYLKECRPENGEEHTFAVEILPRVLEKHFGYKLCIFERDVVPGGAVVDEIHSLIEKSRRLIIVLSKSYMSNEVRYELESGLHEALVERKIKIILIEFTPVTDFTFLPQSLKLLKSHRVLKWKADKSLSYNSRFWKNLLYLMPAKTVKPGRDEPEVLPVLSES
T7 sequence (looked up) 2: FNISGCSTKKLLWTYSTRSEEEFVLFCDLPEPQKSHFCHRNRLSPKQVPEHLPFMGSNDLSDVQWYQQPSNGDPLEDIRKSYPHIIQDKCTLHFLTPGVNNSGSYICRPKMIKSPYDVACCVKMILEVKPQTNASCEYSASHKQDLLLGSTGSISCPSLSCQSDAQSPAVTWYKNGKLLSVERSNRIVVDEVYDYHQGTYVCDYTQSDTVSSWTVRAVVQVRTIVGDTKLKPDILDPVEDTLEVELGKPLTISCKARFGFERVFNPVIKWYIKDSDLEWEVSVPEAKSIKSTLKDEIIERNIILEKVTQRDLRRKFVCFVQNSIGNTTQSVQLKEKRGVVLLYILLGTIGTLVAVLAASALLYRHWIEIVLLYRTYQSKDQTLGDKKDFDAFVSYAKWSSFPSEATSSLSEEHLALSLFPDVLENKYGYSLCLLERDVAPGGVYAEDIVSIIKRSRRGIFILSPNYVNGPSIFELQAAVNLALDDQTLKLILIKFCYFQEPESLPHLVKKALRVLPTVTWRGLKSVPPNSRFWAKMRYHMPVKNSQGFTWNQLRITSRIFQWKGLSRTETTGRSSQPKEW


Tests used:
IL-18 receptor alpha = target: T1, IL-18 receptor alpha; test: Octet BLI
Method: (§1) Octet 96red instrument was used to determine affinities of IL18 proteins to BP or receptors. 5-10 ug/ml analyte proteins were used for loading on Sartorius tips (AHC or SA). […] 120-180 s loading, 200 s association and 800 s dissociation were used for kinetics. 3-7 data points were used to calculate affinities.
Additional IL-18 variants were generated and tested based on the results above with G3 variants, E6 variants, K53 variants, and M60 variants. The new variants were first tested for binding to IL-18Rα and IL-18BP by octet, as described above.

[1] = target: T2, human IL-18 binding protein; test: cell-based or functional assay
[2] = target: T3, IL-18 receptors on HEK-Blue IL-18 …; test: cell-based or functional assay
[3] = target: T2, human IL-18 binding protein; test: cell-based or functional assay; remark: listed apart in the source
[4] = target: T3, IL-18 receptors on HEK-Blue IL-18 …; test: cell-based or functional assay; remark: listed apart in the source
[5] = target: T4, mouse IL-18 binding protein; test: Octet BLI, monoFc scaffold
Method: as §1
(§2) Several mouse variants were next tested for binding affinity to mouse IL-18R alpha and mouse IL-18BP.

[6] = target: T5, mouse IL-18 receptor alpha; test: Octet BLI, monoFc scaffold
Method: as §1, §2

[7] = target: T6, human IL-18 binding protein (IL-18BP); test: Octet BLI
Method: as §1
Select G3/K53-substitution containing IL-18 variants and select G3/K53/N91-substitution containing TL-18 variants were tested for activity in the HEK-blue activity assay and for binding affinity to IL-18BP. As shown in the data of Table 15 and Table 16 below, each variant had similar or better activity than WT IL-18, and retained substantial activity in the presence of IL-18BP.

[8] = target: T6, human IL-18 binding protein (IL-18BP); test: cell-based or functional assay
[9] = target: T7, IL-18 receptors on HEK-Blue IL-18 …; test: cell-based or functional assay

Binder	Kd (IL-18 receptor alpha) [nM]	HEK-blue EC50 (pM) + 300 nM BP [1] [pM]	HEK-blue EC50 (pM) - BP [2] [pM]	HEK-blue EC50 (pM) + 1000 nM BP [3] [pM]	HEK-blue EC50 (pM) - BP [4] [pM]	also measured
Comparator 1 (ligand, Human IL-18 variant M51K, K53S, Q56L, P57A, M60L, S105D, D110S, N111R; also called IL-18 Comparator 1) YFGKLESKLSVIRNLNDQVLFIDQGNRPLFEDMTDSDCRDNAPRTIFIISKYSDSLARGLAVTISVKCEKISTLSCENKIISFKEMNPPDNIKDTKSDIIFFQRDVPGHSRKMQFESSSYEGYFLACEKERDLFKLILKKEDELGDRSIMFTVQNED	16	–	–	–	–	–
human IL-18 variant G3T/E6K/K53A/M60K (ligand) YFTKLKSKLSVIRNLNDQVLFIDQGNRPLFEDMTDSDMRDNAPRTIFIISMYADSQPRGKAVTISVKSEKISTLSSENKIISFKEMNPPDNIKDTKSDIIFFQRSVPGHDNKMQFESSSYEGYFLASEKERDLFKLILKKEDELGDRSIMFTVQNED	222	0.062	0.061	0.065	0.054	–
mouse IL-18 G3V/L59R on monoFc scaffold (Fc fusion, not shown: small tags and cut ends) NFVRLHSTTAVIRNINDQVLFVDKRQPVFEDMTDIDQSASEPQTRLIIYMYKDSEVRGRAVTLSVKDSKMSTLSSKNKIISFEEMDPPENIDDIQSDLIFFQKRVPGHNKMEFESSLYEGHFLASQKEDDAFKLILKKKDENGDKSVMFTLTNLHQSNGGPSVFLFPPKPKDTLMISRTPEVTCVVVDVSHEDPEVKFNWYVDGVEVHNAKTKPREEQYNSTYRVVSVLTVLHQDWLNGKEYKCKVSNKALPAPIEKTISKAKGQPREPQVYTLPPSREEMTKNQVNLTCLVKGFYPSDIAVEWESNGQPENNYKTTPPVLDSDGSFFLNSTLTVDKSRWQQGNVFSCSVMHEALHNHYTQKSLSLS	–	–	–	–	–	binding result [5]: no binding; Kd [6]: 51.5 nM
IL-18 variant G3A, N91L, K53S (ligand) YFAKLESKLSVIRNLNDQVLFIDQGNRPLFEDMTDSDMRDNAPRTIFIISMYSDSQPRGMAVTISVKSEKISTLSSENKIISFKEMNPPDLIKDTKSDIIFFQRSVPGHDNKMQFESSSYEGYFLASEKERDLFKLILKKEDELGDRSIMFTVQNED	–	–	–	–	–	Kd [7]: 4.8 nM; koff [7]: 0.00103 s⁻¹; kon [7]: 216000 M⁻¹ s⁻¹; HEK-Blue Ec50 (pM), +IL-18BP (50 nM) [8]: 5.82 pM; HEK-Blue Ec50 (pM), -IL-18BP [9]: 0.71 pM
human IL-18 variant G3V/M60K (ligand) YFVKLESKLSVIRNLNDQVLFIDQGNRPLFEDMTDSDMRDNAPRTIFIISMYKDSQPRGKAVTISVKSEKISTLSSENKIISFKEMNPPDNIKDTKSDIIFFQRSVPGHDNKMQFESSSYEGYFLASEKERDLFKLILKKEDELGDRSIMFTVQNED	–	0.507	0.042	1.05	1.43	–
